Assay [1] deals with T1, Recombinant Mouse 5′-Nucleotidase/CD73 Protein, CF (R&D Systems Cat: 4488-EN) (mouse, UniProt Q61503 29-549, limits assumed).
T1 construct: Bought protein; also called Mouse CD73-His; recombinant mouse CD73; not shown: His tag
T1 sequence (looked up): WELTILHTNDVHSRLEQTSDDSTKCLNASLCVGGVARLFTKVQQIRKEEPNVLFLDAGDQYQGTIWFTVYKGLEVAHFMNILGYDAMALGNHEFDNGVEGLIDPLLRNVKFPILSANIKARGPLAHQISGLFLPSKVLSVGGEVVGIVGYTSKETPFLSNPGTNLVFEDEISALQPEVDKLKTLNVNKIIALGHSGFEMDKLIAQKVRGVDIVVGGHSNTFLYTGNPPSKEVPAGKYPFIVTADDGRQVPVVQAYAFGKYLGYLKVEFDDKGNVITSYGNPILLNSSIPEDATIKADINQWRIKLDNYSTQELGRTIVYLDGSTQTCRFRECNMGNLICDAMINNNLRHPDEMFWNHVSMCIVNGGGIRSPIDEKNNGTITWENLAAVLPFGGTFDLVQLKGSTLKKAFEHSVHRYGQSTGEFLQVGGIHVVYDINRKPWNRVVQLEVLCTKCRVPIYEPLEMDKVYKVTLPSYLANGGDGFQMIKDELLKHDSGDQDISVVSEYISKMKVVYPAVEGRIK
The assay is described as follows: Biacore SPR, Fab captured by anti-human Fab on CM5 chip, CD73 as analyte. As to the method:
(§1) Proteins used were as follows: recombinant human CD73 (R&D Systems 5795-EN); recombinant cynomolgus monkey CD73 (Sino Biological 90912-C08H); recombinant mouse CD73 (R&D Systems 4488-EN); and recombinant rat CD73 (Sino Biological 80375-R08H). Anti-human Fab (GE Healthcare Life Sciences) was immobilized on all 4 flow cells (Fc) on a CM5 chip (GE). […] 0.01 nM to 90 nM CD73 (3-fold dilution series) was flown over all 4 Fcs. All samples were diluted in running buffer HBS-EP+(pH 7.4, 0.01 M HEPES, 150 mM NaCl, 3 mM EDTA and 0.05% (v/v) P20).

The target in assay [2] is T2, recombinant rat CD73 (Sino Biological 80375-R08H) (rat, UniProt P21588 29-551).
T2 construct: Bought protein; also called rCD73; rat CD73/His
T2 sequence (looked up): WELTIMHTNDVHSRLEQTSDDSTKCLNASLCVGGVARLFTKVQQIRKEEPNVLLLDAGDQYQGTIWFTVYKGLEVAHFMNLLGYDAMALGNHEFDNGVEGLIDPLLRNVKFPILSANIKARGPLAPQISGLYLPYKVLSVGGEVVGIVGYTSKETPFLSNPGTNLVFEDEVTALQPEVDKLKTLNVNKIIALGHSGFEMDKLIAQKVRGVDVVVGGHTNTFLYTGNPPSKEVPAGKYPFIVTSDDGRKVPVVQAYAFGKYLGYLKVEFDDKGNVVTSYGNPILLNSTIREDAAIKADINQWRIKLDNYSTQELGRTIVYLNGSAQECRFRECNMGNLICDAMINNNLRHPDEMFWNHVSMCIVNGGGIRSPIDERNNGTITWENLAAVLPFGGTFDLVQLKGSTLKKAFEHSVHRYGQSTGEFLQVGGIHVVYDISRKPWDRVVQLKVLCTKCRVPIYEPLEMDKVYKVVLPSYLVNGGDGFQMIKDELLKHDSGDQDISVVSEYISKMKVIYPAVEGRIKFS
The description is as above. As to the method:
as §1

The target of assay [3] is T3, Recombinant Human 5′-Nucleotidase/CD73 Protein, CF (R&D Systems Cat: 5795-EN) (human, UniProt P21589 27-547).
T3 construct: Bought protein; also called Human CD73-His; recombinant human CD73; not shown: His tag
T3 sequence (looked up): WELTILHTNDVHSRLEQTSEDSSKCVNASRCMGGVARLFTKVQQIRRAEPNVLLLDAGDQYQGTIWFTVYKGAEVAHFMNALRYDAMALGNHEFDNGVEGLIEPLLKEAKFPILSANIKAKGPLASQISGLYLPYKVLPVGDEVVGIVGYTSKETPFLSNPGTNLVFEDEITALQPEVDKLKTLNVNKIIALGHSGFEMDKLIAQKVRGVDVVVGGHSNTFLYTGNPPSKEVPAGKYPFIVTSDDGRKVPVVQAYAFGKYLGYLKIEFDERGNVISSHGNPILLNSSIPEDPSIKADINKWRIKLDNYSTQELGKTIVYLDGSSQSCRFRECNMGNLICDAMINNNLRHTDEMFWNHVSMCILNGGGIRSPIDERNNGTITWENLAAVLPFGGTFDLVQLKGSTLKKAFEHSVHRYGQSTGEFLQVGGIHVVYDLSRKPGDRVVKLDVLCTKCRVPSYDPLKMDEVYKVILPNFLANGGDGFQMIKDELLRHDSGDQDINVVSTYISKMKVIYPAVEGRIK
The assay is described as follows: Biacore SPR, Fab captured by anti-human Fab on CM5 chip, CD73 0.01-90 nM as analyte. How it is done:
as §1

For assay [4], the target named is T4, Cynomolgus CD73/NT5E Protein (His Tag) (Sino Biological Cat: 90192-C08H-50) (cynomolgus monkey, UniProt A0A2K5V5U7 27-547).
T4 construct: treated as one protein; also called Cynomolgus CD73-His; recombinant cynomolgus monkey CD73; not shown: His tag
T4 sequence: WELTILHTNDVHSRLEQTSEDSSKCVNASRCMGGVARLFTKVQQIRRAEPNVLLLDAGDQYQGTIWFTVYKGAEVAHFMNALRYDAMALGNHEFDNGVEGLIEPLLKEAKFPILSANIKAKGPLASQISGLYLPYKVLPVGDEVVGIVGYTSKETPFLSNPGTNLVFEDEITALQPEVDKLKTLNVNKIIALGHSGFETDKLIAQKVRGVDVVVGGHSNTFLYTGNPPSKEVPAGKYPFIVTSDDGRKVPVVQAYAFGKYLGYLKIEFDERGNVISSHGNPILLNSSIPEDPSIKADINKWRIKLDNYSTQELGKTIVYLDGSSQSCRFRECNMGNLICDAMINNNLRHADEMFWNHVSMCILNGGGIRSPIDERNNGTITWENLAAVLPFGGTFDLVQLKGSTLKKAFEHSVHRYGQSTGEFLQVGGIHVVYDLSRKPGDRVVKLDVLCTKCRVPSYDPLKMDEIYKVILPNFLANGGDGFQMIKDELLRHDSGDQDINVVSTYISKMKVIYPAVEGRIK
The description is as above. How it is done: as §1

Assay [5] addresses T1, Recombinant Mouse 5′-Nucleotidase/CD73 …. The assay is described as follows: Biacore SPR, His-tagged CD73 captured by anti-His antibody on CM5 chip, Fab as analyte. How it is done:
(§2) The anti-His Ab was directly immobilized onto a CM5 chip surface by amine coupling. The His-tagged human CD73/His, cynomolgus monkey CD73/His, mouse CD73/His or rat CD73/His was flowed over and captured at a desired resonance unit (RU) for an Rmax of 20. Antibody analyte concentrations in serial dilutions of IgG or Fab were flowed over at 60 μL/min. The sensorgrams were analyzed using the manufacturer's software for a 1:1 binding model.

For assay [6], the target named is T2, recombinant rat CD73 (Sino Biological …). Described as above. How it is done: as §2
The target of assay [7] is T4, Cynomolgus CD73/NT5E Protein (His Tag) …. The experiment in a line: ForteBio Octet RED384 (BLI), whole IgG on AHQ sensors, 100 nM antigen, 1:1 model. How it is done: (§3) Briefly, ForteBio affinity measurements were performed by loading IgGs on-line onto AHQ sensors. Sensors were equilibrated off-line in assay buffer for 30 min and then monitored on-line for 60 seconds for baseline establishment. Sensors with loaded IgGs were exposed to 100 nM antigen for 3 minutes, and afterwards were transferred to assay buffer for 3 min for off-rate measurement. All kinetics were analyzed using the 1:1 binding model. Antigens used were: [0438] Human CD73-His: Recombinant Human 5′-Nucleotidase/CD73 Protein, CF from R&D Systems Cat: 5795-EN [0439] Mouse CD73-His: Recombinant Mouse 5′-Nucleotidase/CD73 Protein, CF from R&D Systems Cat: 4488-EN [0440] Cynomolgus CD73-His: Cynomolgus CD73/NT5E Protein (His Tag) from Sino Biological Cat: 90192-C08H-50

The target in assay [8] is T3, Recombinant Human 5′-Nucleotidase/CD73 …. The experiment in a line: ForteBio Octet RED384 (BLI), whole IgG on AHQ sensors, 100 nM antigen, 1:1 model; * value approaching upper limit for Kd measurement. As to the method: as §3
Assay [9] concerns the target T1, Recombinant Mouse 5′-Nucleotidase/CD73 …. Described as above. How it is done:
as §3

Assay [10] shares this target. The assay is described as follows: Biacore SPR, Fab captured by anti-human Fab on CM5 chip, CD73 0.01-90 nM as analyte. As to the method:
as §1

The target of assay [11] is T2, recombinant rat CD73 (Sino Biological …). The assay is described as above. As to the method:
as §1

B1: Fab 373 (Fab, V domains shown)
VH: EVQLLESGGGLVQPGGSLRLSCAASGFTFHRYAMSWVRQAPGKGLEWVSAISGSGMNTYYADSVKGRFTISRDNSKNTLYLQMNSLRAEDTAVYYCARGGLYGSGSYLSDFDLWGRGTLVTVSS
VL: EIVLTQSPATLSVSPGERATLSCRASQSVGSNLAWYQQKPGQAPRLLIYGASTRATGIPARFSGSGSGTEFTLTISSLQSEDFAVYYCQQHNAFPYTFGGGTKVEIKR
Turning to B1, the binding result in assay [1] and in assay [2] was “no binding (tested: 0.01 nM to 90 nM CD73)” each time. Besides, the Kd came to 13 nM in assay [3] and 9.46 nM in assay [4].

B2: 373.A Fab (Fab, V domains shown)
VH: EVQLLESGGGLVQPGGSLRLSCAASGFTFHRYAMSWVRQAPGKGLEWVSAISGSGMNTYYADSVKGRFTISRDNSKNTLYLQMNSLRAEDTAVYYCARGGLYGSGSYLSDFDLWGRGTLVTVSS
VL: EIVLTQSPATLSVSPGERATLSCRASQSVGSNLAWYQQKPGQAPRLLIYGASTRATGIPARFSGSGSGTEFTLTISSLQSEDFAVYYCQQHNAFPYTFGGGTKVEIKR
In the case of B2, the binding result in assay [5] and in assay [6] was “no binding” each time.

B3: 350.C (antibody, V domains shown)
VH: QVQLQESGPGLVKPSETLSLTCTVSGGSIERYYWSWIRQPPGKGLEWIGYIYGRGSTNYNPSLKSRVTISVDTSKNQFSLKLSSVTAADTAVYYCARESQESPYNNWFDPWGQGTLVTVSS
VL: DIQMTQSPSSVSASVGDRVTITCRASQGISSWLAWYQQKPGKAPKLLIYAASSLQSGVPSRFSGSGSGTDFTLTISSLQPEDFATYYCQQGNSFPRTFGGGTKVEIK
notes: also called 350 IgG1 format
Consider B3, for which the Kd was found to be 0.635 nM in [7], 0.248 nM in assay [8] and 0.409 nM in assay [9].

B4: Fab 350 (Fab, V domains shown)
VH: QVQLQESGPGLVKPSETLSLTCTVSGGSIERYYWSWIRQPPGKGLEWIGYIYGRGSTNYNPSLKSRVTISVDTSKNQFSLKLSSVTAADTAVYYCARESQESPYNNWFDPWGQGTLVTVSS
VL: DIQMTQSPSSVSASVGDRVTITCRASQGISSWLAWYQQKPGKAPKLLIYAASSLQSGVPSRFSGSGSGTDFTLTISSLQPEDFATYYCQQGNSFPRTFGGGTKVEIKR
notes: Made by a stop between the two proline residues above the core hinge region of the heavy chain; also called 350 Fab; Fab of mAb 350
For the molecule B4, the dissociation constant Kd in assay [3] was at most 0.1 nM; in assay [4], at most 0.1 nM; in [10] it was 17.3 nM; in assay [11] it was 28.3 nM.

The values above are taken from patent publication US20240141060A1 (Novartis, published 2024).
